{"source": "patent US8642555", "tested_on": "albumin-bound form of EMC-Arg-Ser-Ser-Tyr-Tyr-Ser-Leu-PABC-DOXO (6)", "data": [{"substance": "prostate-specific antigen (PSA)", "values": [{"measurement": "PSA-mediated cleavage monitored by HPLC (enzyme activity)", "result": "cleaved efficiently within a few hours"}]}]}
